This is an account of results in US20120058906A1 (published 2012).

The target in assay [1] is T1, rHuman IGF-1 sR (IGF-1 sR), CF (R&D Systems Cat#391-GR) (human, UniProt P08069 31-932).
T1 construct: Bought soluble receptor; also called insulin-like growth factor-1 soluble receptor; IGF-R1
Briefly: ECL (MSD multi-spot), antigen spotted on plate; Fab 10 nM; blank 427.

In assay [2] the target is T2, rHuman P-Cadherin/Fc Chimera, CF (R&D Systems Cat#861-PC) (human, UniProt P22223 108-654).
T2 construct: Bought protein; also called CDH3; Fc part of the bought chimera not given
The assay is described as above.

Assay [3] deals with T3, Recombinant Human DLL4 (R&D Systems Cat#1506-D4/CF) (human, UniProt Q9NR61 27-524).
T3 construct: Bought protein; also called rHuman DLL4; delta-like protein 4
Described as above.

Assay [4] addresses T4, rHuman CD44/Fc Chimera, CF (R&D Systems Cat#3660-CD) (human, UniProt P16070 21-220).
T4 construct: Bought protein; Fc part of the bought chimera not given
Described as above.

Assay [5] deals with T1, rHuman IGF-1 sR (IGF-1 sR), CF (R&D …). The experiment in a line: ECL (MSD multi-spot), antigen spotted on plate; Fab 1000 nM; blank 1742.
For assay [6], the target named is T2, rHuman P-Cadherin/Fc Chimera, CF (R&D …). The assay is described as above.
Assay [7] has as its target T3, Recombinant Human DLL4 (R&D Systems …). Described as above.
The target of assay [8] is T4, rHuman CD44/Fc Chimera, CF (R&D Systems …). Described as above.
For assay [9], the target named is T1, rHuman IGF-1 sR (IGF-1 sR), CF (R&D …). Briefly: ECL (MSD multi-spot), antigen spotted on plate; Fab 8 nM; blank 1188.
Assay [10] deals with T3, Recombinant Human DLL4 (R&D Systems …). The assay is described as above.
Assay [11] has as its target T5, rHuman EGF R/Fc Chimera, CF (R&D Systems Cat#344-ER) (human, UniProt P00533 25-645).
T5 construct: Bought protein; also called epidermal growth factor receptor; Fc part of the bought chimera not given
The description is as above.

In assay [12] the target is T6, rHuman HGF R/c-MET/Fc Chimera, CF (R&D Systems Cat#358-MT/CF) (human, UniProt P08581 25-932).
T6 construct: Bought protein; also called HGF R/Fc; hepatocyte growth factor receptor; Fc part of the bought chimera not given
The description is as above.

Assay [13] deals with T1, rHuman IGF-1 sR (IGF-1 sR), CF (R&D …). The experiment in a line: ECL (MSD multi-spot), antigen spotted on plate; Fab 1.6 nM; blank 648.
The target of assay [14] is T3, Recombinant Human DLL4 (R&D Systems …). The assay is described as above.
The target of assay [15] is T5, rHuman EGF R/Fc Chimera, CF (R&D …). The description is as above.
Assay [16] concerns the target T6, rHuman HGF R/c-MET/Fc Chimera, CF (R&D …). The assay is described as above.
In assay [17] the target is T1, rHuman IGF-1 sR (IGF-1 sR), CF (R&D …). The experiment in a line: ECL (MSD multi-spot), antigen spotted on plate; Fab 40 nM; blank 1229.
For assay [18], the target named is T3, Recombinant Human DLL4 (R&D Systems …). The assay is described as above.
Assay [19] addresses T5, rHuman EGF R/Fc Chimera, CF (R&D …). The description is as above.
The target in assay [20] is T6, rHuman HGF R/c-MET/Fc Chimera, CF (R&D …). The description is as above.
In assay [21] the target is T1, rHuman IGF-1 sR (IGF-1 sR), CF (R&D …). Briefly: ECL (MSD multi-spot), antigen spotted on plate; Fab 0.32 nM; blank 428.
Assay [22] deals with T3, Recombinant Human DLL4 (R&D Systems …). Described as above.
Assay [23] concerns the target T5, rHuman EGF R/Fc Chimera, CF (R&D …). Described as above.
Assay [24] has as its target T6, rHuman HGF R/c-MET/Fc Chimera, CF (R&D …). Described as above.
The target in assay [25] is T1, rHuman IGF-1 sR (IGF-1 sR), CF (R&D …). The experiment in a line: ECL (MSD multi-spot), antigen spotted on plate; Fab 200 nM; blank 1659.
In assay [26] the target is T3, Recombinant Human DLL4 (R&D Systems …). The description is as above.
The target in assay [27] is T5, rHuman EGF R/Fc Chimera, CF (R&D …). The description is as above.
Assay [28] addresses T6, rHuman HGF R/c-MET/Fc Chimera, CF (R&D …). The description is as above.
In assay [29] the target is T1, rHuman IGF-1 sR (IGF-1 sR), CF (R&D …). Briefly: ECL (MSD multi-spot), antigen spotted on plate; Fab 1000 nM; blank 2142.
The target of assay [30] is T3, Recombinant Human DLL4 (R&D Systems …). The assay is described as above.
Assay [31] deals with T5, rHuman EGF R/Fc Chimera, CF (R&D …). The assay is described as above.
In assay [32] the target is T6, rHuman HGF R/c-MET/Fc Chimera, CF (R&D …). The description is as above.
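Note: blank spot per well as comparator with Hit at signal to blank ratio of 4 or more.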

B1: Fab VH5-51_IGHD5-18*01>3_IGHJ4*01_G104T & V3-4_IGLJ1*01 (Fab, V domains shown)
VH: EVQLVQSGAEVKKPGESLKISCKGSGYSFTSYWIGWVRQMPGKGLEWMGIIYPGDSDTRYSPSFQGQVTISADKSISTAYLQWSSLKASDTAMYYCARRGYSYTYDYFDYWGQGTLVTVSS
VL: QTVVTQEPSFSVSPGGTVTLTCGLSSGSVSTSYYPSWYQQTPGQAPRTLIYSTNTRSSGVPDRFSGSILGNKAALTITGAQADDESDYYCVLYMGSGISYVFGTGTKVTVL
notes: Expressed in E. coli as a Fab; CH1 with Flag and His tags comes from Plasmid A and the lambda CL from Plasmid E; also called IGHV5-51*03; IGHJ4*01 G104T with IGLV8-61*01
In the case of B1, the ECL signal in assay [1] was 1120; in assay [2], 705; in assay [3], 5230; in assay [4], 841; in assay [5], 3990; in [6], 3430. Further, the ECL signal in [7] was determined as 29800; in assay [8], 3380.

B2: Fab VH1-46_IGHD6-6*01_IGHJ1*01_S104A & L6_IGKJ1*01 (Fab, V domains shown)
VH: QVQLVQSGAEVKKPGASVKVSCKASGYTFTSYYMHWVRQAPGQGLEWMGIINPSGGSTSYAQKFQGRVTMTRDTSTSTVYMELSSLRSEDTAVYYCAREEYSSASAEYFQHWGQGTLVTVSS
VL: not shown
notes: Expressed in E. coli as a Fab; CH1 with Flag and His tags comes from Plasmid A and the kappa CL from Plasmid C; also called IGHV1-46*01; IGHJ1*01 S104A with IGKV3-11*01
For the molecule B2, the ECL signal in [9] was found to be 1290; in assay [10], 9330; in assay [11] it was 1300; in [12], 1300; in assay [13] it was 815; in [14] it was 2130. The ECL signal is 862 in [15]; 830 in assay [16]; 1900 in [17]; 13600 in assay [18]; 1840 in assay [19]; 1540 in [20]. Further, the ECL signal in assay [21] was determined as 611; in assay [22] it was 646; in assay [23], 660; in assay [24], 574; in [25], 2600; in assay [26], 14800. The ECL signal in assay [27] stood at 2950; in assay [28] it was 2440; in assay [29] it was 3350; in [30], 14300; in assay [31] it was 3480; in assay [32] it was 3530.
